From PMC3510490, “Structure of Actin-related protein 8 and its contribution to nucleosome binding” (Nucleic Acids Research, 2012)
pKd: −log10 of the molar value.

What was measured:
[1] = biological target: 207-bp nucleosome (Xenopus laevis); test: other fluorescence titration; Arp constructs or sub-complex titrated (1 to 5000 nM) into fluorescently labelled histone complexes or nucleosomes kept at 0.5-1 nM, 40 µl in microplates; 20 mM Tris pH 7.5, 150 mM KCl, 5% glycerol, 1 mM TCEP, 0.01% CHAPS, 0.01% octylglucoside; room temperature, 20-30 min; apparent Kd and Hill coefficient from non-linear fit; quadruplicates
[2] = biological target: H2A–H2B dimer (Xenopus laevis) (UniProt P06897); test: as above
[3] = tested on: Human Arp8 (Δ1-33) (Homo sapiens); test: fluorescence titration; details: 20 mM Tris pH 7.5, 150 mM KCl, 5% glycerol, 1 mM TCEP, 0.01% CHAPS, 0.01% octylglucoside, room temperature 20-30 min, labelled species 0.5-1 nM, protein …
[4] = tested on: Human Arp8 full-length (Homo sapiens); test: fluorescence titration; details: 20 mM Tris pH 7.5, 150 mM KCl, 5% glycerol, 1 mM TCEP, 0.01% CHAPS, 0.01% octylglucoside, room temperature 20-30 min, labelled species 0.5-1 nM, protein …
[5] = tested on: Yeast Arp8 (Saccharomyces cerevisiae); test: fluorescence titration; details: 20 mM Tris pH 7.5, 150 mM KCl, 5% glycerol, 1 mM TCEP, 0.01% CHAPS, 0.01% octylglucoside, room temperature 20-30 min, labelled species 0.5-1 nM, protein …
[6] = tested on: Yeast Arp8;Yeast Arp4;Actin (INO80 sub-complex I);Ino80 HSA domain (INO80 sub-complex I) (Saccharomyces cerevisiae;Saccharomyces cerevisiae;Saccharomyces cerevisiae;Saccharomyces cerevisiae); test: fluorescence titration; details: 20 mM Tris pH 7.5, 150 mM KCl, 5% glycerol, 1 mM TCEP, 0.01% CHAPS, 0.01% octylglucoside, room temperature 20-30 min, labelled species 0.5-1 nM, protein …
[7] = tested on: Yeast Arp4 (Saccharomyces cerevisiae); test: fluorescence titration; details: 20 mM Tris pH 7.5, 150 mM KCl, 5% glycerol, 1 mM TCEP, 0.01% CHAPS, 0.01% octylglucoside; room temperature 20-30 min; labelled species 0.5-1 nM, protein …

Sequence of Homo sapiens Arp8 (Δ1–33) (Q9H981 34-624, stated change not applied): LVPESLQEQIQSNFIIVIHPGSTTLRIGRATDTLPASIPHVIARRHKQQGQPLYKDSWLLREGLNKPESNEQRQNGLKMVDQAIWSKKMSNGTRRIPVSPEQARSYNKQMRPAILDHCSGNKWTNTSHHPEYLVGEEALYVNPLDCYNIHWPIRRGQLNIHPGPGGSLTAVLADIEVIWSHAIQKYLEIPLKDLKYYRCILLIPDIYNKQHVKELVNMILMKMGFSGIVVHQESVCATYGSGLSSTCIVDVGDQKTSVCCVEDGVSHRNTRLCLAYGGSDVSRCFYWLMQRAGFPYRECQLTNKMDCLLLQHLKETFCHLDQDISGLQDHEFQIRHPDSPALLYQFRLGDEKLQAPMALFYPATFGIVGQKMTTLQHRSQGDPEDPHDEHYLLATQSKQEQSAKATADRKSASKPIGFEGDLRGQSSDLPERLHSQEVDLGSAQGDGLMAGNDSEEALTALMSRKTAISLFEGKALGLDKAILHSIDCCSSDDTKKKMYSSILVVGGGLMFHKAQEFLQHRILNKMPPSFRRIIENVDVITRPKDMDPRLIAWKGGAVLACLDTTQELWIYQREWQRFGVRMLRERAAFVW
Sequence of Full-length Homo sapiens Arp8 (Q9H981 whole entry): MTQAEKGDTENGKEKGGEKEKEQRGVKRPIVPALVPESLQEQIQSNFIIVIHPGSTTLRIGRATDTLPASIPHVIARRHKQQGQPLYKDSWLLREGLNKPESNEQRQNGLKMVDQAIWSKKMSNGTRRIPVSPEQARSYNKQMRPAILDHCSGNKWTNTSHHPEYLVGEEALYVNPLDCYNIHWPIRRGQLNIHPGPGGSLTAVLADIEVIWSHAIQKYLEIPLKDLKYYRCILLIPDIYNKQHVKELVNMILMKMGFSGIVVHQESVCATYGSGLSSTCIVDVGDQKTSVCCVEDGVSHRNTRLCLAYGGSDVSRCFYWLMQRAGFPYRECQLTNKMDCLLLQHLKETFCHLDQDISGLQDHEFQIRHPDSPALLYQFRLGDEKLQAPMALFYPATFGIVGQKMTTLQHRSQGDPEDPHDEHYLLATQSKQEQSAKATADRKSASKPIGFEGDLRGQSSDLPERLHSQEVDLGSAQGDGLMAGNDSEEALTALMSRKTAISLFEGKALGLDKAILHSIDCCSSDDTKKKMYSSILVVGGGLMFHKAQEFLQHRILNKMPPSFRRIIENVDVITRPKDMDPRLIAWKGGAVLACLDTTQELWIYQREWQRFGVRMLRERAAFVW

Substance	pKd [1]	pKd [2]	further results
Saccharomyces cerevisiae Arp4 (from UniProt P80428 1-489) (natural protein)	6.69	–	–
Homo sapiens Arp8 (Δ1–33) (from UniProt Q9H981 34-624) (domain or fragment)	7.20	6.44	–
Full-length Homo sapiens Arp8 (from UniProt Q9H981 1-624) (natural protein)	7.29	6.26	–
Saccharomyces cerevisiae Arp8 (from UniProt Q12386 1-881) (natural protein)	6.50	5.71	–
30-bp DNA ('601' sequence linker DNA)	–	–	pKd ([3]; 5' C6 amine): 5.20; pKd ([4]; 5' C6 amine): 5.16; pKd ([5]; 5' C6 amine): 5.72; pKd ([6]; 5' C6 amine): 6.44
Saccharomyces cerevisiae INO80 sub-complex I (Arp8–Arp4–actin-HSA) (from UniProt Q12386 1-881; P80428 1-489; P60010 1-375; P53115 462-685)	7.20	6.07	–
207-bp nucleosome	–	–	pKd [3]: 7.20; pKd [4]: 7.29; pKd [7]: 6.69; pKd [5]: 6.50; pKd [6]: 7.20
